Patent US12723246 (UNIVERSITY OF MASSACHUSETTS, dated 2026)

Target: the molecule itself
Test: negative-stain EM of the precipitate formed after tag cleavage; self-assembly into capsid-like structures
Text: Given that dArc Iresembles a Gag protein, and that retroviral Gag proteins have the ability to auto-assemble into capsids, the precipitate was examined at the EM level by negative staining. The presence of round structures of about 39.3±5.2 nm was seen, which resembled HIV capsids. FIGS. 8A and 8B.

B1: purified dArc1 protein, bacterially produced, after cleavage of the HIS-MBP tag (other, Drosophila, UniProt Q7K1U0 1-254, looked up)
chain: MAQLTQMTNEQLRELIEAVRAAAVGAAGSAAAAGGADASRGKGNFSACTHSFGGTRDHDVVEEFIGNIETYKDVEGISDENALKGISLLFYGMASTWWQGVRKEATTWKEAIALIREHFSPTKPAYQIYMEFFQNKQDDHDPIDTFVIQKRALLAQLPSGRHDEETELDLLFGLLNIKYRKHISRHSVHTFKDLLEQGRIIEHNNQEDEEQLATAKNTRGSKRTTRCTYCSFRGHTFDNCRKRQKDRQEEQHEE
notes: Self-assembles into capsid-like structures of about 39.3±5.2 nm; also called His-MBP-dArc1 (before cleavage)
binding result: binds
